Numbered stars: 1 amine (or outer) side, 2 acyl side, 3 side chain; on linkers, the order of the positions; unused ones are H or OH. Bridge positions count the residues as written; N and C are the ends. Side chains are listed from the residue outwards. Ends that are not written are not given here. * marks the point of attachment. C20 diacid = O=C(O)CCCCCCCCCCCCCCCCCCC(=O)*; γGlu = O=C(O)[C@H](CCC(=O)[*:2])N[*:1]
T1: human amylin receptor (amylin 3(a) receptor: human calcitonin receptor with RAMP-3) (human, UniProt P30988 25-474; O60896 24-148, limits assumed)
T1 sequence (looked up) 1: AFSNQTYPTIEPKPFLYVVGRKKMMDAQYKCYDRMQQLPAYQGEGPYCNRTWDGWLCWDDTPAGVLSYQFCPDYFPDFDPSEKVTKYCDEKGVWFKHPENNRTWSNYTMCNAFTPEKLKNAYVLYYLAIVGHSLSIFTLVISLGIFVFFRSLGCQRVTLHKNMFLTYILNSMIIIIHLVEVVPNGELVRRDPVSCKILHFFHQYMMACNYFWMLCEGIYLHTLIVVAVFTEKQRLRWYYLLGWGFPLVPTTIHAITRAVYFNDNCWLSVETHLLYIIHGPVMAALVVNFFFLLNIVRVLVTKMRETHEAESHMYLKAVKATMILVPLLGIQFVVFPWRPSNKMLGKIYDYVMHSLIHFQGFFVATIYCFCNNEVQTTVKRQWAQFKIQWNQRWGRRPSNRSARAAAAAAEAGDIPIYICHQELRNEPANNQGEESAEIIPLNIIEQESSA
T1 sequence (looked up) 2: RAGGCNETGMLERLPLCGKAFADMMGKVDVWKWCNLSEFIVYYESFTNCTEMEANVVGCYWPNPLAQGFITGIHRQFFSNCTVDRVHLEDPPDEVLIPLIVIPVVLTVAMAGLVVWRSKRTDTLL

T2: human calcitonin receptor (human, UniProt P30988 25-474)
T2 sequence (looked up): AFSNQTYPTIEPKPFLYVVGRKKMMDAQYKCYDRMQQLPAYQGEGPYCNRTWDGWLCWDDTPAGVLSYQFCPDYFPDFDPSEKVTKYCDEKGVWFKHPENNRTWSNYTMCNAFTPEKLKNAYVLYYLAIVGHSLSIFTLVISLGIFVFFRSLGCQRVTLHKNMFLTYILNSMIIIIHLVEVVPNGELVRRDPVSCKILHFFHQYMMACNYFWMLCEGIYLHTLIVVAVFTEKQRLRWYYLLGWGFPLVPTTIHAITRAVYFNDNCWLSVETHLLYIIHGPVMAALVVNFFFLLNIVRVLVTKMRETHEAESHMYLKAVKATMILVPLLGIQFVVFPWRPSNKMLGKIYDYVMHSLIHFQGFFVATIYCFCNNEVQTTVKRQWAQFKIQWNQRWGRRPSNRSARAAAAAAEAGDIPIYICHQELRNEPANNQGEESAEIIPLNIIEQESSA

T3: human calcitonin receptor (human, UniProt P30988 25-474)
T3 construct: whole, on cells; Assay used cell membranes of the transfected BHK cells; also called hCTR; hCT
T3 sequence (looked up): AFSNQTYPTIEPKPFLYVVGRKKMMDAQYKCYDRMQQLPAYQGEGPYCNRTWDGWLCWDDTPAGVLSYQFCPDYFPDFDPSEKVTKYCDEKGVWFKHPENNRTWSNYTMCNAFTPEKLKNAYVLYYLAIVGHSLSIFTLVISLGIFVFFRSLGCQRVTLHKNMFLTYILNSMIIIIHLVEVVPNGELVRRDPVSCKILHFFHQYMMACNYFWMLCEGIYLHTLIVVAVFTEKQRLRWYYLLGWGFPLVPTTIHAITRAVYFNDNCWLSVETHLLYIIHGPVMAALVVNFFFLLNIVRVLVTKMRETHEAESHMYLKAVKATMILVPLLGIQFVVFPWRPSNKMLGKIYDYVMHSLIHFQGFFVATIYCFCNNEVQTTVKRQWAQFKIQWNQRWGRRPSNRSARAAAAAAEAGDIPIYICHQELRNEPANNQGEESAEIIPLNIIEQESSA

T4: human amylin receptor (human, UniProt P30988 25-474; O60896 24-148, limits assumed)
T4 construct: whole, on cells; Assay used cell membranes of the Amylin 3(a)/CRE-luc BHK cells; the complex is called the human amylin receptor; also called hAmylin-R; hAmylinR
T4 sequence (looked up) 1: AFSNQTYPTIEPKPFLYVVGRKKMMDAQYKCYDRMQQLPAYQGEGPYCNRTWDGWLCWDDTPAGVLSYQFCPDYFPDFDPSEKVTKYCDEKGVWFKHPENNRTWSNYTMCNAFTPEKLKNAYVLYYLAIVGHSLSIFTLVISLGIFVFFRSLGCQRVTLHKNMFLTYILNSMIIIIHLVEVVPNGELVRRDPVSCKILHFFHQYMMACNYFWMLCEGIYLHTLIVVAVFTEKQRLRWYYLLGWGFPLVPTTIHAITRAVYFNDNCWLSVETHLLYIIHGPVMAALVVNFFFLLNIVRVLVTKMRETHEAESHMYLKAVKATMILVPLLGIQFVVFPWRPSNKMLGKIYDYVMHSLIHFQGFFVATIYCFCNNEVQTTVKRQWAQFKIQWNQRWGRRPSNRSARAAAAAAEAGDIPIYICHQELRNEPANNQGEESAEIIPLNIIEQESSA
T4 sequence (looked up) 2: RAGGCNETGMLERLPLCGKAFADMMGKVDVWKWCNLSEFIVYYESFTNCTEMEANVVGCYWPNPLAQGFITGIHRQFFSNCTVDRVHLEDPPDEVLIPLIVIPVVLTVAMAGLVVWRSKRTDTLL


Columns and labels:
[1] = target: T1, human amylin receptor (amylin 3(a) …); test: cell-based or functional assay
[2] = target: T2, human calcitonin receptor; test: cell-based or functional assay
[3] = target: T3, human calcitonin receptor; test: SPA radioligand competition (125I-calcitonin), membranes of BHK cells with human calcitonin receptor
Outline: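 BHK hCTR membranes 35 ng/μL + SPA beads 0.05 mg/well; buffer 50 mM Hepes pH 7.4, 1 mM CaCl2, 5 mM MgCl₂, 0.1% OA, 0.02% Tween20. 120 min, 25° C., shaking. Scintillation count; IC50 by one-site binding competition.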

[4] = target: T3, human calcitonin receptor; test: ratio IC50 hCTR / IC50 hAmylin-R of the two SPA competition assays; reference: human amylin receptor
Outline: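 Competition binding by SPA with cell membranes (35 ng/μL) and SPA beads in 50 mM Hepes pH 7.4 with 1 mM CaCl2, 5 mM MgCl2, 0.1% OA and 0.02% Tween20. Incubated 120 min at 25 °C with shaking, then counted.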

human amylin receptor = target: T4, human amylin receptor; test: SPA radioligand competition (125I-rat amylin), membranes of BHK cells with human calcitonin receptor + RAMP-3
Protocol: The binding assay was performed using scintillation proximity assay (SPA) beads (RPNQ0001) from PerkinElmer and cell membranes from the Amylin 3(a)/CRE-luc cells (as described in Assay (II)) were used. Membranes were prepared in the following way; the cells were rinsed with PBS and incubated with Versene for approximately 5 min before harvesting. The cells were flushed with PBS and the cell-suspension was centrifuged for 5 min at 1000 rpm. Cells were homogenized (ultrathurrax) in a buffer containing 20 mM Na-HEPES and 10 mM EDTA (pH 7.4) and centrifuged at 20.000 rpm for 15 min. The resulting pellet was resuspended, homogenized and centrifuged (20.000 rpm, 15 min) in a buffer containing 20 mM Na-HEPES and 0.1 mM EDTA (pH 7.4, buffer 2). The resulting pellet was resuspended in buffer 2 and protein concentration was measured (BCA protein Assay, Pierce). The homogenate was kept cold during the whole procedure. The membranes were kept at −80° C. until use. The assay was performed in a 384 well Optiplate (PerkinElmer) in a total volume of 40 ul. Membranes were mixed with SPA beads. Final concentration of membranes 35 ng/μL final and SPA beads was 0.05 mg/well. Test-compounds were dissolved in DMSO and further diluted in assay buffer (50 mM Hepes, pH 7.4, 1 mM CaCl2, 5 mM MgCl₂, 0.1% OA and 0.02% Tween20). […] The final mixture was incubated with shaking at 400 rpm for 120 min at 25° C. prior to centrifugation (1500 rpm, 10 min). Samples were analyzed on TopCounter™ (Packard). The IC₅₀ was calculated using (one site binding competition analysis) GraphPad Prism5 as a measure of receptor affinity.

| hAmylin-R funct. EC50 (pM) [1] | Ratio hCT/hAmylin funct. [2] | hCTR funct. EC50 (pM) [2] | IC50 [3] | Ratio hCT/hAmylin binding [4] | IC50 (human amylin receptor) | Binder |
| --- | --- | --- | --- | --- | --- | --- |
| 216 pM | 9.9 ratio | 2140 pM |  |  |  | K([γGlu-γGlu-C20 diacid])CNTATCATQRLAEFLRHSSPNFGAIPSSTNVGPNTF-NH2 (disulfide 2-7; N-terminus assumed; SMILES CC[C@H](C)[C@H](NC(=O)[C@H](C)NC(=O)CNC(=O)[C@H](Cc1ccccc1)NC(=O)[C@H](CC(N)=O)NC(=O)[C@@H]1CCCN1C(=O)[C@H](CO)NC(=O)[C@H](CO)NC(=O)[C@H](Cc1c[nH]cn1)NC(=O)[C@H](CCCNC(=N)N)NC(=O)[C@H](CC(C)C)NC(=O)[C@H](Cc1ccccc1)NC(=O)[C@H](CCC(=O)O)NC(=O)[C@H](C)NC(=O)[C@H](CC(C)C)NC(=O)[C@H](CCCNC(=N)N)NC(=O)[C@H](CCC(N)=O)NC(=O)[C@@H](NC(=O)[C@H](C)NC(=O)[C@@H]1CSSC[C@H](NC(=O)[C@@H](N)CCCCNC(=O)CC[C@H](NC(=O)CC[C@H](NC(=O)CCCCCCCCCCCCCCCCCCC(=O)O)C(=O)O)C(=O)O)C(=O)N[C@@H](CC(N)=O)C(=O)N[C@@H]([C@@H](C)O)C(=O)N[C@@H](C)C(=O)N[C@@H]([C@@H](C)O)C(=O)N1)[C@@H](C)O)C(=O)N1CCC[C@H]1C(=O)N[C@@H](CO)C(=O)N[C@@H](CO)C(=O)N[C@H](C(=O)N[C@@H](CC(N)=O)C(=O)N[C@H](C(=O)NCC(=O)N1CCC[C@H]1C(=O)N[C@@H](CC(N)=O)C(=O)N[C@H](C(=O)N[C@@H](Cc1ccccc1)C(N)=O)[C@@H](C)O)C(C)C)[C@@H](C)O) |
| 285 pM | 3.8 ratio |  |  |  |  | K([γGlu-γGlu-C20 diacid])CNTATCATQRLAEFLRHSSPNFGAIPSSTNVGHNTY-NH2 (disulfide 2-7; N-terminus assumed; SMILES CC[C@H](C)[C@H](NC(=O)[C@H](C)NC(=O)CNC(=O)[C@H](Cc1ccccc1)NC(=O)[C@H](CC(N)=O)NC(=O)[C@@H]1CCCN1C(=O)[C@H](CO)NC(=O)[C@H](CO)NC(=O)[C@H](Cc1c[nH]cn1)NC(=O)[C@H](CCCNC(=N)N)NC(=O)[C@H](CC(C)C)NC(=O)[C@H](Cc1ccccc1)NC(=O)[C@H](CCC(=O)O)NC(=O)[C@H](C)NC(=O)[C@H](CC(C)C)NC(=O)[C@H](CCCNC(=N)N)NC(=O)[C@H](CCC(N)=O)NC(=O)[C@@H](NC(=O)[C@H](C)NC(=O)[C@@H]1CSSC[C@H](NC(=O)[C@@H](N)CCCCNC(=O)CC[C@H](NC(=O)CC[C@H](NC(=O)CCCCCCCCCCCCCCCCCCC(=O)O)C(=O)O)C(=O)O)C(=O)N[C@@H](CC(N)=O)C(=O)N[C@@H]([C@@H](C)O)C(=O)N[C@@H](C)C(=O)N[C@@H]([C@@H](C)O)C(=O)N1)[C@@H](C)O)C(=O)N1CCC[C@H]1C(=O)N[C@@H](CO)C(=O)N[C@@H](CO)C(=O)N[C@H](C(=O)N[C@@H](CC(N)=O)C(=O)N[C@H](C(=O)NCC(=O)N[C@@H](Cc1c[nH]cn1)C(=O)N[C@@H](CC(N)=O)C(=O)N[C@H](C(=O)N[C@@H](Cc1ccc(O)cc1)C(N)=O)[C@@H](C)O)C(C)C)[C@@H](C)O, also called compound 87) |
|  |  |  | 102 nM | 90 | 1.14 nM | KCNTATCATQRLANFLRHSSPNFGAIPSSTNVGSNTY (C20 diacid-gGlu-2xOEG on the alpha amino group of the N-terminal residue (Lys1); disulfide Cys2-Cys7; C-terminal amide, Synthetic analogue; also called compound 24) |

Reference: patent US20140087995A1 (published 2014)
